Format in all cases: biochemical
Data set [1] has as its target T1, human neutrophil elastase (Homo sapiens, UniProt P08246).
T1 sequence (P08246 30-267): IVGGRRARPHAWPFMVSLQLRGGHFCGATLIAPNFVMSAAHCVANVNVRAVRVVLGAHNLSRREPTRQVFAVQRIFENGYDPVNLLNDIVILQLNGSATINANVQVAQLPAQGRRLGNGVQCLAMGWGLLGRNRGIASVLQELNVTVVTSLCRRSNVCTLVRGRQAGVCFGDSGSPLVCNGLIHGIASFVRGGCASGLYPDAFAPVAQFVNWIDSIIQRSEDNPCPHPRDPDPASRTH
As to the kind of experiment: Determination of Ki value against human neutrophil elastase (fluorogenic substrate MeOSuc-Ala-Ala-Pro-Val-7AMC). The following applies: 30° C., pH 7.5, purified peptides with recovered activity, read-out: Inhibitory Activity against Human Neutrophil Elastase Ki. The procedure: Determination of Ki value of the samples of purified peptides of Example 7 against human neutrophil elastase was accomplished as follows.
10 μl of solution of human neutrophil elastase (Attends Research), (the concentration of which was adjusted to 25 μM with the following buffer), and 10 μl of test sample (the concentration of which was appropriately adjusted) were added to buffer containing 30 μl of 100 mM Tris-HCl (pH 7.5), 500 mM NaCl, 0.01% BSA, and left for 20 minutes at 30° C. Then, 200 μl of MeOSuc-Ala-Ala-Pro-Val-7AMC solution (Cambridge Research Biochemicals) containing 1% dimethyl-sulfoxide (hereinafter referred to as "DMSO") was added to the mixture to adjust the concentration thereof to 0.2 mM, 0.3 mM and 0.4 mM, and reacted at 30° C. Fluorescence at 450 nm excited at 365 nm was measured over 0 to 3 minutes with a spectrophotofluorometer (F-3000, HITACHI), and an initial reaction velocity was calculated. Ki value was determined by preparing a graph having a vertical axis of the reciprocal of initial reaction velocity and a horizontal axis of sample concentration, and then plotting on the graph lines for each of the three substrate concentrations and reading the intersection point of the three lines so obtained.

Data set [2] deals with T2, bovine pancreas trypsin (Bos taurus, UniProt P00760).
T2 construct: purchased Washington Biochemicals; host or cells: bovine pancreas
T2 sequence (P00760 24-246): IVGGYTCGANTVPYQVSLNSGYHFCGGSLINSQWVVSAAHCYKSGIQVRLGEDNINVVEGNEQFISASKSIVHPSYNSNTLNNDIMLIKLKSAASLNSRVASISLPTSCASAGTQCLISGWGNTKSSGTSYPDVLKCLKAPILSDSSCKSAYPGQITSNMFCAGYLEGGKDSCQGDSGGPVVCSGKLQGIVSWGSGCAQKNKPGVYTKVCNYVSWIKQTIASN
As to the kind of experiment: Determination of Ki value against bovine pancreas trypsin (substrate Bz-DL-Arg-pNA). The following applies: 30° C., pH 8.0. The procedure:
Furthermore, the Ki value against trypsin was determined as follows.
Firstly, buffer containing 20 μl of 10 mM CaCl2, 50 mM Tris-HCl (pH 8.0) was mixed with 10 μl of test sample (1.2~6 μM) and 10 μl of 4.2 μM bovine pancreas trypsin solution (prepared by dissolving bovine pancreas trypsin in 1 mM HCl; Washington Biochemicals), and incubated at 30° C. for three minutes. 110 μl of 1M Tris-HCl (pH 8.0) buffer containing 100 mM CaCl2 was added to this solution, then 350 μl of any of 0.6 mM, 1.2 mM and 2.3 mM Bz-DL-Arg-pNA.HCl (Nakaraitesk) solution (containing 10% DMSO) was added, and reacted at 30° C. Change on absorbance at 405 nm over time was recorded, and the initial reaction velocity of the enzyme was determined therefrom. Then, the Ki value against trypsin was determined according to a procedure which was similar to the procedure for human neutrophil elastase above.

Data set [3] deals with T1, human neutrophil elastase. As to the kind of experiment: Resistance against oxidizer: inhibitory rate against human neutrophil elastase after treatment with chloro-succinate-imide. The following applies: for Inhibitory Rate against Human Neutrophil Elastase (%): amount of inhibitor 20 p mole. The procedure: 5 μl of peptide sample, the concentration of which was adjusted appropriately, was mixed with 5 μl of 5 mM chloro-succinate-imide [prepared by dissolving chloro-succinate-imide (Nakaraitesk) in 100 mM Tris-HCl (pH 7.5) buffer containing 500 mM NaCl], then left for 10 minutes at room temperature, and then treated with the oxidizer. Then, 5 μl of human neutrophil elastase, concentration of which was adjusted with said buffer, and 35 μl of said buffer were further added thereto, and left for 15 minutes at 30° C. 450 μl of MeOSuc-Ala-Ala-Pro-Val-pNA (Cambridge Research Bio-Chemicals) solution (containing 1% DMSO), the concentration of which was adjusted to 0.1 mM with said buffer, was added thereto and further reacted for 30 minutes at 30° C. 40 μl of acetic acid was added and absorbance at 405 nm was measured. An inhibition against an activity of human neutrophil elastase in the samples treated with the oxidizer was indicated as an inhibitory rate (%) calculated by the following formula. [formula] A: Absorbance obtained from sample not containing inhibitor. B: Absorbance obtained from sample containing inhibitor.

Broadly, the Ki is a dissociation constant, usually derived from enzyme kinetics or from competition with a known ligand.

Like-named read-outs stand apart in the source and are kept apart here.

Regarding “R15: Recombinant HI-8 peptide (C-terminal domain Thr78-Leu143 of UTI) expressed by using the plasmid pCD17R15”, the Ki is roughly 0.69 µM in data set [1] (listed as HI-8), 0.69 µM in data set [1] and 0.36 µM in data set [2].

B1: Ulinastatin (protein, UniProt P02760 206-352, looked up)
Inter-alpha-trypsin inhibitor …: AVLPQEEEGSGGGQLVTEVTKKEDSCQLGYSAGPCMGMTSRYFYNGTSMACETFQYGGCMGNGNNFVTEKECLQTCRTVAACNLPIVRGPCRAFIQLWAFDAVKGKCVLFPYGGCQGNGNKFYSEKECREYCGVPGDGDEELLRFSN
modifications: Inter-alpha-trypsin inhibitor light chain
Regarding B1, the inhibitory constant (Ki) in data set [1] turned out to be 0.12 µM; in data set [2], 0.92 µM. Further, the “Inhibitory Rate against Human Neutrophil Elastase (%)” value in data set [3] (chloro-succinate-imide 0 mM) is 72%; in data set [3] (chloro-succinate-imide 2.5 mM), 5%. For the same molecule, the “inhibitory activity against human neutrophil elastase under oxidizing conditions (in words)” value in data set [3] (treated with oxidizer chloro-succinate-imide) was “oxidized and inactivated completely”.

Source of the values: patent US5541288A, “Peptide having elastase inhibitory activity and producing method thereof” (Nissin Shokuhin Kabushiki Kaisha, priority 1993, dated 1996).
